# Source: the DeepSol protein solubility set
# Assay: soluble on expression in E. coli; label from the status in PepcDB or PDB records
row,Sequence,soluble on expression in E. coli
1,MGHHHHHHSHMQVTITLTSPIIREENMREGDVTSGMVKDPPDVLDRQKCLDALAALRHAKWFQARANGLQSCVIIIRILRDLCQRVPTWSDFPSWAMELLVEKAISSASSPQSPGDALRRVFECISSGIILKGSPGLLDPCEKDPFDTLATMTDQQREDITSSAQFALRLLAFRQIHKVLGMDPLPQMSQRFNIHNNRKRRRDSDGVDGFEAEGKKDKKDYDNF,not soluble
2,MLYLTQRLEIPAAATASVTLPIDVRVKSRVKVTLNDGRDAGLLLPRGLLLRGGDVLSNEEGTDFVQVIAADEEVSVVRCDDPFMLAKACYALGNRHVPLQIMPGELRYHHDHVLDDMLRQFGLTVTFGQLPFEPEAGAYASES,soluble
3,MGSDKIHHHHHHMTRRGMEFYEKAQELVKGFDIFQNQYANPEEEKDEFSIASQHYDFLPPTITAFSERYPDYKNFRIFESTTVQILDEVAQGHSEIGIIYLNNQNKKGIMQRVEKLGLEIIELISFHTHIYLREGHPLAQKEELVMEDLADLPTVRFTQEKDEYLYYSENFVDTSASSQMFNVTDRATLNGILERTDAYATGSGFLDSDSVNGITVIRLKDNLDNRMVYVKREEVELSQAGTLFVEVMQEYFNQKRKS,not soluble
4,MEIEVVYQHSDFIIINKSEGISVHKDQEEQGLTELVAKQLNVPKVWLVHRLDKVTSGLLILALNAESAAEFSRLFSEHKIHKTYLALSNQKPKKKQGLIIGDMKKAREGAWKLCQTKDNPAITRFESVSCEPNLRLFILKPQTGKTHQLRVAMKSLGSPILGDGLYGKNTEKIDRTYLHATQLEFDYLNNFISVTCLPSQGQFWIKPTVFEQIQVYLTKPFLSKLEHHHHHH,soluble
5,VVRVGRRSATFYPPEGAAALIGDFTDWERNPIPLEGPLTLEFPEGAYVEYAFLDREGRPFPDPDNPEKAENPWWSYPRAIKLPGFRYEAPPAPKEEPKVHRHRLGERRFYVAETGPSPKATVVAQDGVAFYRTAGLHKVARALFEAGEIPPVRLVFVEPIDRNTEYRFNEAYEAEFHRVLEEVEGAYGPLNELVLVGASLGGLFSLWQAWRHPERFPKVLALSPALKAHPGGKDAYRDEEWLLARYAEARRLPRVYVEVGLLEWLLGPNRRLAALFADKKVPHAYRERPSGHNWVTWKQALAPGLRYLLGPQ,soluble
6,MGSDKIHHHHHHMEQSMRKKNNNQINIVLNHRKKISLPAAENKTVISSETTTKHEMLQRIEEEMGKLVGMDDIKKIIKEIYAWIYVNKKRQEIGLKSEKQVLHMLFKGNPGTGKTTVARMIGKLLFEMNILSKGHLVEAERADLVGEYIGHTAQKTRDLIKKAMGGILFIDEAYSLARGGEKDFGKEAIDTLVKHMEDKQHGFVLILAGYSREMNHFLSLNPGLQSRFPFIIEFADYSVNQLLEIGKRMYEEREYQLSKEAEWKFRDHLHAVKYSSQITSFSNGRYVRNIVEKSIRTQAMRLLQEDAYDKYDLIGISSSDLMLEEETHST,not soluble
7,MAKYTEWLTEEGLIKIEGWARDGLIDKQIAQNIGVAYSTFREWVKKFPALSASLKKGKEVVDRQVENALFKSATGYEYTEVTEELTENGMEITKKVKKQVAPNPTAAIFWLKNRKPDEWRDRKETEVSGVLNISDAAVEIEQFFEDDST,not soluble
8,MADGQVHDELMMDQQQQQGVVPQQGDIHLSPIDKDLGDAALENNVRQYHLDGVVVSEGMKRMIIDLQRHWLSEYHASREKCLVELTEKLHQEFMMDQQKIRSELLQQFKDELEQTRADLENKHRENLKMESAKLNEKHKRELVASRKKQWCWSCDNEAIYHCCWNTAYCSVECQQGHWQTHRKFCRRKKGNNAPGAPSVPAPQQVGAPMPPQQQ,not soluble
9,MQSDHKEKIAILVDVQNVYYTCREAYRSNFDYNQFWYVATQEKEVVSAKAYAIASNDPKQRQFHHILRGVGFEVMLKPYIQRRDGSAKGDWDVGITLDAIEIAPDVDRVILVSGDGDFSLLVERIQQRYNKKVTVYGVPRLTSQTLIDCADNFVAIDDDFLL,soluble
10,SLFKVGKVSYLNTLPLFYSLEGFEVVEGVPSELVEKLRRGEIHAGIVSSVEYFFNPQDYFILSGISISSRGSVCSVKLFSNEPMEKIREVNITKASLTSRELLFYLFEKKFGFVPKESEEAQAKLLIGDEAMEQKGYKFVYDLGEEWFKLHGLPFVFALFLVKRDADISKAKFLKKEIKKSVKNFFEEGIKNIKNKEYFKNCLDYSLGGEHIKSLINFYAYLSRKFKKQVPKLKFVL,soluble
11,GPGSMDVLVPRAASSGAVGRTPAARTFSAAPPSASSSLCVVGSADHGLKVFNLCTMRELKTLYTKTCGHTEWVTACRFLSDRRVISGGMDSKLCLWNDVTRGGPGRCVDLLGHTGSISQVEVNERHGRSIAMSSSYDRTIRVWELDGIAGGREMGCLSGHKGPVTQFSWLETEVLSGDRQGTVKLWDVETAQCHLTASSKRGQIGSLAHLVHPGVGHLALFGDQGGALTVVDARGPSSAKPLFQDVLHPGGMVTFIRAPSPTAVSAPLIVTCGADKRIIVRDARHNFAEVCAITDHDDFVYSMEVIGNILLSGAGNGRLLVHDVETGELLYELKANAAAVREMFASPSVLVAAGDDGNAKVFDFM,not soluble
12,MGSDKIHHHHHHMAKRSIAYLDSVFDISYTFIDHHSPLNALFLHGWGSSKEIMQQAFQGCFLNYNHLYVDLPGFNQSPNDEKVLETKDYANIINLFLKSVGKKAHVVFGHSFGGKVAILCENERMVLLSSAGILEPKPLKVRCKILLAKIFKKLGLNLGFLRSKDAMGLNQAMYETFKKVISEDFSDHFKRCEKEVLLFWGKDDKATPLSSAQKMQTLLKRSVLFVLEGDHFFFLNQAKEIEKLVENYHHAKS,not soluble
13,QKTGIYDSLRLKLEIVKFYSPNERDAAFHSGNVEGTVIDYTGAAMQQAGGIDLQLVMRLDGYFRLVMSKDYTGESLETLKGKNLGISRNTVIEYTTDRIINTAGLDESEITKTEVNKIPLRLEMLRSGQIDAAVLPDPFITIAMADG,not soluble
14,MGSDKIHHHHHHMLARDKSNLKIEEIRMHKHHEIHRVKPLMPALCRIRQGKKVINWETHSLTVDNNQIILFPCGYEFYIVNYPEAGLYLAEMLYYPIDLIEKFQKFYAITDQIRNTTGFCLPQNPELIYCWEQLKTSISRGFSTQIQEHLAMGVLLSLGAHHVNCLLLSDSKQSLISRCYNLMLSEPRTKWTANKVARYLYISVSTLHRRLASEGISFQSILDDVRLNNALSCYTNDSKTHQRDCQGKWLQVSFSFY,not soluble
15,MGHHHHHHSHMDFSHWPHVLPLEPGGCIDFQTENSSRHCLVTYRPDKNHTTIRSVLMEMSYRLDDTGNPICSCQPVHTFFGGPTCKLLTKNAIFQSPENDGNILVCTGDEAANSALLWDAASGSLLQDLRTDQPVLDICPFEVNRNSYLATLTEKMVHIYKWE,not soluble
16,MSQQSLISPSLQDILCKIQFNDTQFETTKKITRKRSNNFNPDRKKRNRITFDANQIDEMEKVFAENQYPDTMSREKLANKIQLHEERVQIWFQNRRAKYRREQKQTGHPYEPPSITKNPTGEKEKTQDCTTLTSASSPGPSNLSNDTLVSIEMAPKIGTKSVNLFPDQALSNTLNMIINANKNASENNYESEDQFNAESAKLLMLTLSNLFSLQNETTCE,not soluble
17,MNKVLINDTTLRDGEQAAGVVFTLEEKVAIAKFLDTIGVPELEVGIPAMGEEEMRAICAISNLGLKANLLAWNRAVISDIKASVACGMERVHIAIPVSGIQIAAKFHGQWRVSLQRLKDCISFAVDQGLWVAVGGEDSSRADENFLLDVALYAQEWGASRFRFCDTVGVLDPFTTYGKVKLLVSALTIPVEVHTHNDFGMATANALAGIKAGASSVNTTVIGLGERAGNAALEEVVMAIKRIYGVDMGIDTPRLLELSQLVAAASGANVPPWKAIVGENTFAHESGIHAHGVLQNPDTYEPFAPEEVGWERRLVVGKHSGRHSVSNLLEQHGLEHHHHHH,soluble
18,MGSDKIHHHHHHMTSNGQQGKPNLPEKDNLPRELGTQRINSPIARMGMFGAKTTGDTSGYGRLRVYRHVPAAAQRPYSDPSDPRTAYFDEVADALERSLKEIGTPYDTAISRVVVDRGEITFHVQREHLLDVATRLRDDPALRFELCLGVTGVHYPEDEGNELHAVYALRSITHNYEIRLEVSCPDSDPHIPSIVSVYPTNDWHEREAWDFFGIIFDGHPALTRIHMPDDWHGHPQRKDYPLGGIPVEYRGAKVPPPDQRRSYA,not soluble
19,HAYKNALYDDEVSQFSNNWPLYYPLTARKFIYKHDLVDENIASKNRVELTNIERSSLNYPLAPIQVQSKEKQPNVLFILVDAWRYSDATPEVMPNVSKFAEKTVNFTQHMSGGNSTQAGIFSLFYSLPATYWESFYASQRSPVFMDTLQAEGYRMGIFGSAPLTSPPLSRTVFKKVSDLTLKQTGETAVERDQQITDKFIEFQKQDSDKPYFGFLFYDAAHGTVFPEPEFAKFKPYWERVDHILLNNDFDASLYHNRYKNSLYYIDSLIDDVLKNVDLDNTIVVISSDHGEEFNDHKMNYWGHTGNYSDVQVHVPLYVYMPNRQPEQIDYRTTHFDVVPTMMNTLFDVQGTTSSYSVGHNLFDSSAPRDWYIAGSYYNYALVGKELMLVVNPGGHSQQLNRQLKVEKEQKVPVDIIRHSLDEMSRFYKKG,not soluble
20,MGSDKIHHHHHHMIIRKICTTLPVILPEPETIMTVTRPRAERGAFPPGTEHYGRSLLGAPLIWFPAPAASRESGLILAGTHGDENSSVVTLSCALRTLTPSLRRHHVVLCVNPDGCQLGLRANANGVDLNRNFPAANWKEGETVYRWNSAAEERDVVLLTGDKPGSEPETQALCQLIHRIQPAWVVSFHDPLACIEDPRHSELGEWLAQAFELPLVTSVGYETPGSFGSWCADLNLHCITAEFPPISSDEASEKYLFAMANLLRWHPKDAIRPS,not soluble
21,MGHHHHHHSHKHPFIVELAYAFQTGGKLYLILECLSGGELFTHLEREGIFLEDTACFYLAEITLALGHLHSQGIIYRDLKPENIMLSSQGHIKLTDFGLCKESIHEGAVTHTFCGTIEYMAPEILVRSGHNRAVDWWSLGALMYDMLTGSPPFTAENRKKTMDKIIRGKLALPPYLTPDARDLVKKFLKRNP,not soluble
22,MSLDYGINFWSDNDFIIEDGQVKINYKTKPAIIDIVKKVREEGYRGPLLLRFPHLIKKQVDKIFTHFETSIKQYHYKGQFKAVFPLKVNQFPNFVLPLVELSQNRCYGLEAGSKAELIIAMAYTNKGSPITVNGFKDKEMISLGFIAANMGHEITLTIEGLNELETIIEVAEEMGKPCPNIGLRIRLHSSGIGIWAKSGGINSKFGLTSTELLEGIRLLEKHKLIEKFTMIHFHIGSQISDISPLKKAMREAGNIYAELRKMGAKNLKSVNIGGGLAVEYTQHEGSPNRNYTLDEFAGDVVFSLKEIAKNKKEPEPDIYIESGRYIAASHALLVAPVLELFSQEYDEKALHLKDKNPQLIEELNELYNTVNEKYAIEYLHDSLDHMESLLTLFDLGYIDLQDRSNTEILVHLIIKKVIKILKHKNHSDIIRIQEQVQERYLLNCSFFQSLPDYWGLEQSFPVMPLDRLNKRPTRSASLWDITCDSDGEIGFDLNKPLFLHDVDVTTEEYFLGFFLVGAYQEVLGMRHNLFTHPTELSVEFEEDGTHSVTNLLEAQTILDVLDDLDYDEGHHHHHH,not soluble
23,GPLGSDDVEWVVGKDKPTYDEIFYTLSPVNGKITGANAKKEMVKSKLPNTVLGKIWKLADVDKDGLLDDEEFALANHLIKVKLEGHELPADLPPHLVPPSKRRHE,soluble
